Assays:
HEK293 cells [1] = assay: Confocal imaging of co-cultured EphA3-diHcRed/ADAM10 and GFP-ephrin expressing cells; format: cell-based, human; settings: co-incubation with GFP-ephrin-A5 or GFP-ephrin-A2 cells for 40 min
Experimental: FIG. 4. Mutation of acidic residues in the ADAM10 Cys-rich domain affects binding to EphA3/ephrin-A5 and cleavage of ephrin-A5. • A. In vitro binding of mutant ADAM10D+C to EphA3/ephrin-A5. ADAM10D+C[EEE-A] containing Alanine substitutions of Glu573, Glu578, Glu579 (lanes 1-4) or ADAM10D+C[RDD-A] (Ala substitutions of Arg525, Asp526, Asp527, lanes 5-8) were incubated alone (lanes 1, 5), or together with EphA3-Fc (lanes 2, 6), ephrin-A5-Fc (lanes 3, 7), or EphA3-Fc and ephrin-A5 (lanes 4, 8). Complexed proteins were extracted with Protein-A-Sepharose beads and analysed as in FIG. 2. • B. Binding of wild-type and mutant ADAM10ΔMP to EphA3 in cells. EphA3/293 cells were transfected with HA-ADAM10ΔMP or HA-ADAM10ΔMP [EEE-A]. Parental and transfected cells were treated for 10 min with or without pre-clustered ephrin-A5-Fc and lysed. Anti-HA and anti-EphA3 immunoprecipitates, and total cell lysates were analysed by Western blotting with indicated antibodies. • C. Ephrin-A5-Fc cleavage in cells expressing wt and 3A mutant ADAM10. EphA3/293 cells were transfected with full length, wild-type (wt) ADAM10, dominant-negative ADAM10ΔMP, or ADAM10 bearing alanine (3A) or 3 lysine (3K) substitutions of Glu573, 578, 579. Following exposure to clustered (+) or non-clustered ? ephrin-A5 Fc, cleaved ephrin was recovered and analysed by Western Blot as described in FIG. 1c. Parallel anti-HA blots of whole-cell lysates reveal the expression levels of ADAM10 constructs. • D. Model of ADAM protein modules and cleavage mechanism. Left, schematic representation of ADAM proteinases protein domain organization; right, schematic representation of the proposed interactions and positioning of ADAM10, EphA3, and Ephrin-A5 between interacting cells, leading to controlled ephrin-cleavage. • E. Ephrin cleavage from the cell surface is blocked by overexpression of 3A-mutant ADAM10. HEK293 cells were co-transfected with (red-fluorescent) EphA3-diHcRed and either wt ADAM10, ADAM10 bearing alanine (3A) substitutions at Glu573, Glu578, and Glu579, or dominant-negative ADAM10ΔMP. […]

HEK293 cells [2] = assay: Confocal imaging of pro-EGF shedding in co-cultured EGFR-GFP/ADAM10 and HA-pro-EGF expressing cells; format: cell-based, human; settings: co-incubation with HA-pro-EGF cells for 15 min
Experimental: FIG. 5. Cleavage of cell surface pro-EGF by ADAM10 co-expressed with the EGF receptor requires the intact substrate recognition pocket of ADAM10. HEK293 cells transiently expressing EGFR-GFP and either wild type or 3A mutant ADAM10 (as indicated) were co-incubated with HEK293 cells expressing HA-tagged pro-EGF for 15 min. The cells were then washed, fixed and stained with antibodies against ADAM10 (Alexa^546, red) and HA (Alexa^647, cyan). Arrows indicate EGFR/3A Adam10-expressing cells unable to take up EGF from associated HA-pro-EGF expressing cells (stars); arrowheads indicate cells that have taken up EGF that over-express EGFR and wtAdam10 (bottom panels), or just EGFR (with endogenous Adam10), top panels.
ADAM-mediated ligand cleavage from the cell surface, also referred to as ‘shedding’ has been extensively described as mechanism that facilitates the release of the pro-forms of the EGF-receptor ligands (Blobel, 2005, supra). We were interested to see, if the here described substrate recognition site of ADAM10 would function also to recognise pro-EGF and regulate its shedding from the cell surface. We performed the same confocal imaging approach, using HEK293 cells transfected to express GFP-tagged EGF-receptor, which were co-cultured with cells expressing HA-tagged pro-EGF. […]

B1: ADAM10 [EEE-A] mutant: full-length ADAM10 with alanine substitutions of Glu573, Glu578 and Glu579 (protein)
chain: TTVAEKNTCQLYIQTDHLFFKYYGTREAVIAQISSHVKAIDTIYQTTDFSGIRNISFMVKRIRINTTADEKDPTNPFRFPNIGVEKFLELNSEQNHDDYCLAYVFTDRDFDDGVLGLAWVGAPSGSSGGICEKSKLYSDGKKKSLNTGIITVQNYGSHVPPKVSHITFAHEVGHNFGSPHDSGTECTPGESKNLGQKENGNYIMYARATSGDKLNNNKFSLCSIRNISQVLEKKRNNCFVESGQPICGNGMVEQGEECDCGYSDQCKDECCYDANQPEGKKCKLKPGKQCSPSQGPCCTAHCAFKSKTEKCRDDSDCAKEGICNGITALCPASDPKPNFTDCNRHTQVCINGQCAGSICAKHGLAACTCASSDGKDDKELCHVCCMKKMEPSTCASTGSVQWNKYFLGRTITLQPGSPCNDFRGYCDVFMRCRLVDADGPLARLKKAIFSPELYENIAEWIVAYWWAVLLMGIALIMLMAGFIKICSVHTPSSNPKLPPPKPLPGTLKRRRPPQPIQQPQRQRPRESYQMGHMRR
modifications: left off: small tags and cut ends
notes: full-length ADAM10 with alanine substitutions of Glu573, Glu578 and Glu579
ephrin cleavage from the cell surface and internalisation (HEK293 cells [1]): absent | ephrin cleavage from the cell surface and internalisation (HEK293 cells [1]; listed as 3A-mutant ADAM10): blocked | EGF shedding and uptake into EGF-receptor expressing cells (HEK293 cells [2]): dramatically reduced
